Assay results reported in US20210134388A1, “Hyperstable Constrained Peptides and Their Design” (University of Washington, priority 2016, published 2021).
Positions of bridges follow the written chain, without caps; N, C: chain ends. Non-standard residues stand in square brackets, D forms with d. No end group written: not given here.

Tests used:
Assay type in all cases: physicochemical
[1] = Thermal denaturation monitored by CD spectroscopy; details: CD wavelength scans, heated to 95° C. and cooled back; 10 mM sodium phosphate buffer (pH 7.0)
Procedure: (§1) The stability of the designs to thermal and chemical denaturation was assessed by CD spectroscopy. Samples were heated to 95° C. (FIG. 2c), or incubated with increasing concentrations of guanidinium hydrochloride (GdnHCl) (FIG. 2d). The contribution of disulfide bonds to protein folding was assessed by incubating samples with a ˜100-fold molar excess of the reductant tris (2-carboxyethyl) phosphine (TCEP).
(§2) Circular dichroism (CD) wavelength and temperature scans were recorded on AVIV model 420 or Jasco J-1500 CD spectrometer. For thermal denaturation, peptides samples were prepared at 0.07-0.2 mg/ml final concentration in 10 mM sodium phosphate buffer (pH 7.0). Wavelength scans from 195 nm to 260 nm were recorded at 25° C., 55° C., 95° C., and again after cooling back to 25° C. For chemical denaturation experiments, samples for each peptide were prepared in the presence of 0 M to 6 M GdnHCl concentrations. The concentration of GdnHCl was measured by refractometry. Peptide samples were also prepared in the presence of 2.5 mM TCEP (TCEP was pre-equilibrated to pH 7.0 prior to addition), and incubated for 3 hours. Peptide concentrations were the same across all samples. Wavelength scans from 190 nm to 260 nm were recorded for each sample in 0.1 cm cuvette.

[2] = Chemical denaturation with guanidinium hydrochloride (GdnHCl) monitored by CD spectroscopy; details: 0 M to 6 M GdnHCl
Procedure: as §1, §2

[3] = Reduction of disulfide bonds with TCEP, folding monitored by CD spectroscopy; details: 2.5 mM TCEP (~100-fold molar excess), incubated for 3 hours
Procedure: as §1, §2

[4] = NMR secondary 1Hα chemical shifts at a range of temperatures
Procedure: FIG. 19: Secondary ^1Hα chemical shifts at a range of temperatures for peptide NC_cHLHR_D1 (SEQ ID NO:09). NMR spectra were collected at 25° C. (black bars), 55° C. (blue bars), 75° C. (red bars), and again after cooling to 25° C. (green bars).
Each non-canonical peptide (1 mg) was dissolved in […] of 10% D20/90% H2O or 100% D2O (˜pH 4). NMR spectra were recorded at 298K on a Bruker Avance-600 spectrometer. Two-dimensional NMR experiments included TOCSY with an […] MLEV-17 spin lock, NOESY (200 ms mixing time), ECOSY, as well as natural-abundance ^13C and ^15N HSQC. Solvent suppression was achieved using excitation sculpting. Spectra were processed using Topspin 2.1 then analyzed using CcpNmr Analysis. Chemical shifts were referenced to internal 2,2-dimethyl-2-silapentane-5-sulfonate (DSS).

Row | Substance | stability to thermal denaturation (CD spectra) [1] | stability to chemical denaturation (CD spectra) [2] | folding / secondary structure in the presence of the reductant TCEP (CD spectra) [3] | change of secondary 1Hα chemical shifts (secondary structure) on heating ([4]; NMR spectra at 25° C., 55° C., 75° C.) | aggregation or irreversible conformation change on heating (secondary chemical shifts after cooling) ([4]; NMR, again after cooling to 25° C.)
1 | AEDCERIRKELEKNPNDEIKKKLEKCQA [gHH_44] | resistant to thermal denaturation |  |  |  | 
2 | NDKCKELKKRYPNCEVRCDpPRYEVHC (NDKCKELKKRYPNCEVRCD[dP]PRYEVHC; disulfide 14-27, 4-18; not fully specified; printed as NDKCKELKKRYPNCEVRCDpPRYEVHC) [NC_HEE_D1] | no loss in secondary structure | does not denature in 6 M GdnHCl |  |  | 
3 | TCEIRVTDTHCKVHCGTQEYKVPPGRTLKVGNCRFTYHDTTCTVECR [gEEEEEE_02] | resistant to both thermal and chemical denaturation | resistant to both thermal and chemical denaturation |  |  | 
4 | NPEDCRQDPEANKSPEECKKLK (cyclo(NPEDCRQDPEANKSPEECKKLK); disulfide 5-18; not fully specified (some residues)) [NC_cHHH_D1] |  | some loss of secondary structure in 6M GdnHCl | lost secondary structure |  | 
5 | PCECDVNGETYTVSSSEECERLCRKLGVTNCRVHCG [gEEHE_02] | impervious to both thermal and chemical denaturation | impervious to both thermal and chemical denaturation | remained partially folded in the presence of TCEP |  | 
6 | PCEDLKERLKKLGMSEECRQRLEKMCKEGTSEDAERMARNCES [gHHH_06] | partially unfolds upon heating to 95 °C but returns to the folded state upon cooling |  |  |  | 
7 | CQTWRrVSPEECRKYKEEYnCVRCTE (CQTWR[dR]VSPEECRKYKEEY[dN]CVRCTE; disulfide 1-21, 12-24) [NC_EHE_D1] | only a small decrease |  |  |  | 
8 | NPELQRKCKELdTRpeaerkcreeSD (cyclo(NPELQRKCKEL[dD]TR[dP][dE][dA][dE][dR][dK][dC][dR][dE][dE]SD); disulfide 8-21 (inferred)) [NC_cHLHR_D1] | no change was observable on heating to 95 °C |  |  | no significant loss of secondary structure resulting from heating | not aggregation-prone or otherwise prone to irreversible conformation changes on heating
9 | CRCHITSSCVRVEGDNGEEYRYCSSDEEDLRRFCKEMQKQC [gEEEH_04] | resistant to both thermal and chemical denaturation | resistant to both thermal and chemical denaturation |  |  | 
10 | PVTWCVRIpPTVRCTVRp (cyclo(PVTWCVRI[dP]PTVRCTVR[dP]); disulfide 5-14 (inferred)) [NC_cEE_D1] |  | do not chemically denature | not changed by reduction of the central disulfide bond |  | 
11 | HDPEKRKECEKKYTDPKKREECKRKA (cyclo(HDPEKRKECEKKYTDPKKREECKRKA); disulfide 9-22; not fully specified (some residues)) [NC_cHH_D1] |  | do not chemically denature | lost secondary structure |  | 
12 | CKQRRRYRGSEEECRKYAEELSRRTGCEVEVECET [gEHE_06] | thermally and chemically stable | thermally and chemically stable | remained folded in the presence of TCEP |  | 
13 | SQETRKKCTEMKKKFKNCEVRCDESNHCVEVRCSDTKYTLC [gHEEE_02] | resistant to both thermal and chemical denaturation | resistant to both thermal and chemical denaturation |  |  | 
14 | EERRYKRCGQDEERVRRECKERGERQNCQYQIRKEGNCYVCEIRC [gEHEE_06] | thermostable | completely resistant to chemical denaturation |  |  | 
15 | QCYTFRSECTNKEFTVCRPNPEEVEKEARRTKEEECRK [gEEH_04] | less stable than the others to thermal denaturation |  |  |  | 
